Where two headings read alike, the source gives them in different places. Blank lines part the entries; values can stand above or below the binder they belong to. Non-standard residues stand in square brackets, D forms with d. No end group written: not given here. *: point of attachment. FITC = O=C1OC2(c3ccc(O)cc3Oc3cc(O)ccc32)c2ccc(NC(=S)*)cc21; Ahx = NCCCCCC(=O)O
Experiments:
[1] = molecular target: recombinant αIIbβ3 headpiece; assay: fluorescence polarisation; competition: unlabeled peptide against 3 nM FITC-dodecapeptide on 300 nM αIIbβ3 headpiece; I50 converted to KD; 20 mM HEPES, pH 7.5, 150 mM NaCl, 2 mM MnCl2, 0.1 mM CaCl2
[2] = molecular target: recombinant αIIbβ3 headpiece; assay: as above; remark: listed apart in the source
[3] = molecular target: six-domain αIIbβ3 headpiece fragment (chymotrypsin-treated, re-purified)
[4] = molecular target: full-length human αIIbβ3 on CHO K1 cells (human) (UniProt P08514)
[5] = molecular target: recombinant αIIbβ3 headpiece; assay: fluorescence polarisation; saturation: FITC-dodecapeptide probe at 3 nM, increasing concentration of αIIbβ3 headpiece; one-site specific binding fit; background with 10 μM tirofiban subtracted; 20 mM HEPES, pH 7.5, 150 mM NaCl, 2 mM MnCl2, 0.1 mM CaCl2

Kd [1]: 7.85 µM
B1: QAGDV pentapeptide (peptide)
peptide: QAGDV

fold reduction in affinity against AGDV [1]: 7.5 fold
B2: AGDV-OCH3 (O-methylated AGDV) (peptide)
peptide: AGDV-OMe

fold reduction in affinity against AGDV [1]: 5.6 fold
fold reduction in affinity against AGDV [2]: 7 fold
B3: AGDV-NH2 (amidated AGDV) (peptide)
peptide: AGDV-NH2

Kd [1]: 9.03 µM
B4: AGDV tetrapeptide (peptide)
peptide: AGDV

Stokes radius of the αIIbβ3 headpiece by size-exclusion chromatography (Superdex 200) with 1 mM peptide (4.78 nm in buffer) [3]: 5.23 nm
B5: RGDF peptide (peptide)
peptide: RGDF

EC50 of LIBS1 epitope exposure on CHO cells expressing αIIbβ3 (flow cytometry, 1 mM Mg2+ and 1 mM Ca2+) [4]: 580 µM
Kd [1]: 1.27 µM
B6: fibrinogen γC dodecapeptide (peptide)
peptide: HHLGGAKQAGDV

Kd [5]: 0.64 µM
B7: FITC-aminohexanoyl-… (peptide)
peptide: {FITC-Ahx}-HHLGGAKQAGDV

Kd [1]: 1 µM
B8: N-acetylated AGDV (peptide)
peptide: Ac-AGDV

fold decrease in binding affinity against AGDV [1]: 24 fold
B9: AGD(v) (D-valine in place of L-valine) (peptide)
peptide: AGD[dV]
